From patent US20170368150A1, “METHODS OF TREATING PULMONARY SARCOIDOSIS” (GOTHAM BIOPHARMACEUTICALS, INC., priority 2014, published 2017)

Key:
[1] = system: patient with chronic pulmonary sarcoidosis; test: n=1 long-term clinical treatment of a chronic pulmonary sarcoidosis patient with PULMOZYME; assay type: in vivo
Description: At times, the patient was bedridden, dyspneic, and could not climb stairs or walk more than 10 feet. Steroids had been prescribed by pulmonary specialists; however the side effects of steroid therapy (diabetes, weight gain, memory loss, mental confusion, crippling joint pain) were intolerable. The patient's pulmonary sarcoidosis was deemed ultimately refractory to steroid therapy, which was discontinued, leaving essentially no therapeutic options for this patient.
PULMOZYME® was prescribed to the patient by a licensed medical practitioner to initiate treatment.
The extended clinical timeline described above allowed for a distinction between remission and stabilization of the disease to be made. […] This was done on an annual basis for the patient described above for the typical “survival window” (8-14 years for patients with progressive, chronic disease).
The clinical timeline for treatment of the patient described above with PULMOZYME® is represented diagrammatically in FIG. 3 during pretreatment and for the entire treatment interval.

bronchiectasis patients = conditions: large clinical trial; cited from earlier work
[2] = more than 10 years of treatment

B1: dornase alfa (protein, listed as Homo sapiens)
chain: LKIAAFNIQTFGETKMSNATLVSYIVQILSRYDIALVQEVRDSHLTAVGKLLDNLNQDAPDTYHYVVSEPLGRNSYKERYLFVYRPDQVSAVDSYYYDDGCEPCGNDTFNREPAIVRFFSRFTEVREFAIVPLHAAPGDAVAEIDALYDVYLDVQEKWGLEDVMLMGDFNAGCSYVRPSQWSSIRLWTSPTFQWLIPDSADTTATPTHCAYDRIVVAGMLLRGAVVPDSALPFNFQAAYGLSDQLAQAISDHYPVEVMLK
What does the source list for B1?
pulmonary disease symptoms (dyspnea, inspissated secretions) on discontinuation of therapy ([1]; annual 2-week discontinuation, resolved upon resumption (2.5 mg qd 4x weekly)): worsened; arterial O2 saturation (finger pulse oximetry) ([1]; at present, on room air): 98%; Arterial oxygenation via pulse oximetry, SaO2 ([1]; currently measured on room air, low of 70% in pre-treatment interval): 99%; Chest physical therapy with postural drainage ([1]; during PULMOZYME therapy): none required; General quality of life ([1]; during PULMOZYME therapy): vastly improved; Rib fractures and abdominal hernias ([1]; during PULMOZYME therapy): none; Granuloma formation/expectoration ([1]; during treatment): occasional; sarcoid skin involvement ([1]; during treatment): unchanged; Remission of disease ([1]; judged by annual 14-day discontinuation): not evident; Emergency room visits and hospitalizations relating to pulmonary sarcoidosis [1, 2]: none; Pulmonary exacerbations (pneumonia) [1, 2]: not been a single pulmonary exacerbation and none; routine chest x-rays during treatment ([1]; scarring not progressed to more severe disease): improvement; Blood chemistry, liver and kidney function during treatment ([1]; single patient): normal; Exercise tolerance during treatment ([1]; single patient): unlimited; Coughing, wheezing, dyspnea ([1]; single patient, continued therapy 3-4 days/week): none; Adverse events / side effects relating to PULMOZYME ([1]; single patient, long-term treatment (more than 10 years; over 12 years)): complete absence of side effects and without side effects or incident and none; benefit of treatment in bronchiectasis (bronchiectasis patients): failed to demonstrate any benefit; safety of treatment in bronchiectasis (bronchiectasis patients): potentially harmful
